2 molecules from patent US20210318312A1 (TRUSTEES OF PRINCETON UNIVERSITY, published 2021) can be followed below.

Assay [1] deals with T1, dihydrolipoyllysine acetyltransferase (DLAT), endogenous (human, UniProt P10515 87-647, lipoyl-lysine at K132 and K259).
T1 construct: Endogenous protein in mitochondrial lysates of MRC5 cells; also called E2 component of the PDHC
T1 sequence (looked up): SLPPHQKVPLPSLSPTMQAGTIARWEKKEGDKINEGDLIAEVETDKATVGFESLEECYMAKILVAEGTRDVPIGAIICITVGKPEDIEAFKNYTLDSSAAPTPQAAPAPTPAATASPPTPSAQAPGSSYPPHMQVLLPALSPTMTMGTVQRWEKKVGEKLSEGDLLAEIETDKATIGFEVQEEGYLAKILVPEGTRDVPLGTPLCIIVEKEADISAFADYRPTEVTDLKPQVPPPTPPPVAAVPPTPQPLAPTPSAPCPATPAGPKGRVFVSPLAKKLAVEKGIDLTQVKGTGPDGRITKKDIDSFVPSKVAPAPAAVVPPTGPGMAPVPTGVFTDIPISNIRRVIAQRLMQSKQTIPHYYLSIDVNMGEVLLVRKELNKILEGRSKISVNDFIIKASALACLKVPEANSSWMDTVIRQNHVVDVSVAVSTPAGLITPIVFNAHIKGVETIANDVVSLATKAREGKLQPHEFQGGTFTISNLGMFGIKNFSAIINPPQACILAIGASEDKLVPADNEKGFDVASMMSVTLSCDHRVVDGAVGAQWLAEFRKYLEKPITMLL
In words: anti-GFP immunoaffinity purification from MRC5 mitochondria, western blot; confocal co-localization. Here is the method:
(§1) Western Immunoblotting. 10 μg of protein from each fraction was resuspended in L SDS Sample Buffer. Each sample was subjected to SDS-PAGE, transferred to nitrocellulose membranes (GE Healthcare Life Sciences, cat. #45-000-929), and blocked in blocked in 5% (w/v) skim milk powder in Tris-buffered saline with 0.05% (v/v) Tween-20 (TBST) for 1 hr at RT. Membranes were probed according to manufacturer's instructions, with the following primary antibodies: mouse anti-GFP (Roche, cat. #11814460001), rabbit anti-LAMP1 (Abcam, cat. #ab24170), rabbit anti-COXIV (Cell Signaling Technology, cat. #4844), rabbit anti-DLAT (Santa Cruz Biotechnology, cat. #sc-32925), or rabbit anti-PDHX (Santa Cruz Biotechnology, sc-98752), for 1 h in TBST, followed by 1 hr incubation in corresponding horseradish peroxidase (HRP)-conjugated secondary antibodies (Jackson ImmunoResearch Laboratories). All antibody incubations were carried out at RT with gentle agitation, and blots washed three times with TBST for 10 min after each incubation. Immuno-targets were detected using ECL (GE Healthcare Life Sciences, cat. #RPN2106).
(§2) Immunoaffinity Purification. SIRT4-EGFP and control EGFP immunoaffinity purifications (IPs) from MRC5 cells were performed using M270 Epoxy Dynabeads (Invitrogen, cat. #14302D) coupled with in-house generated rabbit anti-GFP polyclonal antibodies, as described previously²⁹. […]
A general note: Immunoblotting shows a protein as a band on a membrane.

The target of assay [2] is T2, PDH component X (PDHX), endogenous (human, UniProt O00330 54-501).
T2 construct: Endogenous protein in mitochondrial lysates of MRC5 cells
T2 sequence (looked up): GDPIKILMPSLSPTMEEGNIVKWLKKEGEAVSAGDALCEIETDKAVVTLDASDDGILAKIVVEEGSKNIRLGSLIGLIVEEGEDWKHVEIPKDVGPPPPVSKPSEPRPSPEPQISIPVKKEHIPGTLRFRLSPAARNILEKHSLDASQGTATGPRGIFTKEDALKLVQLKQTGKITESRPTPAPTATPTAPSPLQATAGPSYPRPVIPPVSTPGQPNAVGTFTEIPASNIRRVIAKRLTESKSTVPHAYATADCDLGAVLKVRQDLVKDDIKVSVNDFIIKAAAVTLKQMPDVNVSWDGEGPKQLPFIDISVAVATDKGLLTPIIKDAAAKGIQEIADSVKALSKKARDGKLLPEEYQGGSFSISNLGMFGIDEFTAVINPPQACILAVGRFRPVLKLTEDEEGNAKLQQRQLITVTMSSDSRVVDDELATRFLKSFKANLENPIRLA
The assay is described as above. As for the experimental part: as §1, §2

Assay [3] addresses T3, SIRT3, endogenous (human, UniProt Q9NTG7 102-399, limits assumed).
T3 sequence (looked up): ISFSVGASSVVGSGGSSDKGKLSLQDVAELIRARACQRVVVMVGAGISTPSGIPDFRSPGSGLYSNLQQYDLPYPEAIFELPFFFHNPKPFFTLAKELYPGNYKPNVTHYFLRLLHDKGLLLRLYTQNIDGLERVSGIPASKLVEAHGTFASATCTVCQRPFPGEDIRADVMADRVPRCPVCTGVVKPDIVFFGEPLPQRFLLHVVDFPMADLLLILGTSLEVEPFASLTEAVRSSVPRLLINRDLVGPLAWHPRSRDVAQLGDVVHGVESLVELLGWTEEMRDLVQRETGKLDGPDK
The assay is described as follows: immunoaffinity purification of SIRT4-EGFP from MRC5 mitochondria with mass spectrometry (IP-MS), SAINT scoring. As for the experimental part: Immunoaffinity Purification. SIRT4-EGFP and control EGFP immunoaffinity purifications (IPs) from MRC5 cells were performed using M270 Epoxy Dynabeads (Invitrogen, cat. #14302D) coupled with in-house generated rabbit anti-GFP polyclonal antibodies, as described previously²⁹. Pooled mitochondria from fractions 3 and 4 from the OptiPrep™ gradient were resuspended in 1 mL optimized Lysis Buffer (20 mM HEPES-KOH, pH 7.4, 0.1 M KOAc, 2 mM MgCl₂, 0.1% Tween-20, 1 μM ZnCl₂, 1 μM CaCl2)), with 0.6% Triton X-100, 200 mM NaCl, and 1/100 (v/v) protease inhibitor cocktail (Sigma, cat. #P8340). Lysed mitochondria were vortexed three times for 20 sec each, and mixed by rotation for 10 min at 4° C. Insoluble material (pellet) was removed by centrifugation at 5000×g for 10 min. The supernatant was collected and SIRT4-EGFP or free EGFP (negative control) was immunoisolated by incubation with 7 mg of GFP-coupled magnetic beads for 60 min at 4° C. […]
To investigate potential endogenous substrates of SIRT4, proteomics was used to define its endogenous mitochondrial protein interactions. […] Using direct fluorescence microscopy (co-localization with MitoTracker, FIG. 4) and density-based organelle fractionation (co-isolation with the mitochondrial COX IV, FIG. 1a), we confirmed its mitochondrial localization. […]

The target of assay [4] is T1, dihydrolipoyllysine acetyltransferase …. In words: reciprocal immunoaffinity purification of DLAT from wild-type fibroblasts, western blot (FIG. 1F).

B1: SIRT4-EGFP (enzyme)
chain: IGLFVPASPPLDPEKVKELQRFITLSKRLLVMTGAGISTESGIPDYRSEKVGLYARTDRRPIQHGDFVRSAPIRQRYWARNFVGWPQFSSHQPNPAHWALSTWEKLGKLYWLVTQNVDALHTKAGSRRLTELHGCMDRVLCLDCGEQTPRGVLQERFQVLNPTWSAEAHGLAPDGDVFLSEEQVRSFQVPTCVQCGGHLKPDVVFFGDTVNPDKVDFVHKRVKEADSLLVVGSSLQVYSGYRFILTAWEKKLPIAILNIGPTRSDDLACLKLNSRCGELLPLIDPC
notes: Stably expressed in MRC5 fibroblasts and immunoisolated from mitochondrial lysate with anti-GFP beads; also called SIRT4-OE; not shown: EGFP (enhanced green fluorescent protein, ORF of pEGFP-N1), fused C-terminal of SIRT4; linker
B1: the figures for the binding result in assay [1], in assay [2] and in assay [3] were “binds”, “binds” and “no binding”, respectively.

B2: endogenous SIRT4 (enzyme)
chain: IGLFVPASPPLDPEKVKELQRFITLSKRLLVMTGAGISTESGIPDYRSEKVGLYARTDRRPIQHGDFVRSAPIRQRYWARNFVGWPQFSSHQPNPAHWALSTWEKLGKLYWLVTQNVDALHTKAGSRRLTELHGCMDRVLCLDCGEQTPRGVLQERFQVLNPTWSAEAHGLAPDGDVFLSEEQVRSFQVPTCVQCGGHLKPDVVFFGDTVNPDKVDFVHKRVKEADSLLVVGSSLQVYSGYRFILTAWEKKLPIAILNIGPTRSDDLACLKLNSRCGELLPLIDPC
notes: Endogenous SIRT4 of wild-type MRC5 fibroblasts
With B2, in assay [4], the binding result is listed as “binds”.
